Source: US20240199716A1 (ANTLIA BIOSCIENCE, published 2024)
Each block holds one molecule with its values, some of them ahead of it.

Assays:
[1] = molecular target: human natriuretic polypeptide receptor hNPR1 (the membrane-bound guanylate cyclase receptor of BNP) (human) (UniProt P16066); test: cell-based or functional assay
[2] = molecular target: T1, human natriuretic polypeptide receptor hNPR1 (the membrane-bound guanylate cyclase receptor of BNP) (human, UniProt P16066 33-1061); test: cell-based or functional assay
T1 sequence (looked up): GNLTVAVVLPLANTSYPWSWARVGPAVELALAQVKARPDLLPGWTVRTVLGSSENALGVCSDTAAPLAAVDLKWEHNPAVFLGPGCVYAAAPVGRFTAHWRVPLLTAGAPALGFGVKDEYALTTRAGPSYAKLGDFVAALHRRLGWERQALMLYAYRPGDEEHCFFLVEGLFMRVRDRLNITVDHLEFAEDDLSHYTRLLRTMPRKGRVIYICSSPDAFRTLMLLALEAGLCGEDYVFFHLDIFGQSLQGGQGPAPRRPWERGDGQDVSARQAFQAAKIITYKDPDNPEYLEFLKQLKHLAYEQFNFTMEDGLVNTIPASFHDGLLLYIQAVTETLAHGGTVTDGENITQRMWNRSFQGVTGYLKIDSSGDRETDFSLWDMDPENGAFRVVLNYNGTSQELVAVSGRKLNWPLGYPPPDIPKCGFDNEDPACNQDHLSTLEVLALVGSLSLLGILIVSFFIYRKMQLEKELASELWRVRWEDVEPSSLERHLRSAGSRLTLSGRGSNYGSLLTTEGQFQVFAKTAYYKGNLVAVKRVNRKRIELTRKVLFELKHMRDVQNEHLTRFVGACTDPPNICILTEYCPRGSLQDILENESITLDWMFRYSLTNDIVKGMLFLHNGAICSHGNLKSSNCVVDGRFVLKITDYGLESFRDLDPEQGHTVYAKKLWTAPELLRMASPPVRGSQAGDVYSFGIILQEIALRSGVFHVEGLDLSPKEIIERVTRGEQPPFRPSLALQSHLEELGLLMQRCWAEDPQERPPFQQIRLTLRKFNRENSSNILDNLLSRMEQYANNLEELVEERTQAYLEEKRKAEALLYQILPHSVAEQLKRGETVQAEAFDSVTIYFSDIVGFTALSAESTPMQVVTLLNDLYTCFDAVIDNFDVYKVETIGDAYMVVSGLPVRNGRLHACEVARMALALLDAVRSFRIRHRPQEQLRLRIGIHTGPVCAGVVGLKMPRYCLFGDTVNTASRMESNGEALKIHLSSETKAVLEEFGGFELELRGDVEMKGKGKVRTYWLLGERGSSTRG

Log dose ratio from hBNP(1-32) (NPR-1 cGMP assay, HEK293T/17) [1]: 1.5 | Maximum % control (cGMP HTRF, % response to BNP1-32 10 µM) [1]: 97.4% | PEC50 (n) (cGMP HTRF, transiently transfected HEK293T/17 cells) [1]: 6.57 | Potency fold loss from hBNP(1-32) (NPR-1 cGMP assay, HEK293T/17) [1]: 31.8 fold | pEC50 [1]: 6.57
Molecule: PAS600-hBNP(1-32) (ligand)

log EC50 (cGMP, TR-FRET, % Activation, CHO-K1 cells transfected with hNPR1) [2]: -7.28 | log dose ratio from hBNP(1-32) (hNPR1 cGMP agonist assay) [2]: -1.95 | potency fold loss from hBNP(1-32) (hNPR1 cGMP agonist assay) [2]: 89 fold
B1: Compound 5, hBNP(1-30)-(SEQ ID No:2)10-A (PAS attached to carboxy group of the C-terminal arginine 30) (ligand)
chain: SPKMVQGSGCFGRKMDRISSSSGLGCKVLRASPAAPAPASPAAPAPSAPAASPAAPAPASPAAPAPSAPAASPAAPAPASPAAPAPSAPAASPAAPAPASPAAPAPSAPAASPAAPAPASPAAPAPSAPAASPAAPAPASPAAPAPSAPAASPAAPAPASPAAPAPSAPAASPAAPAPASPAAPAPSAPAASPAAPAPASPAAPAPSAPAASPAAPAPASPAAPAPSAPAA

log EC50 (cGMP, TR-FRET, % Activation, CHO-K1 cells transfected with hNPR1) [2]: -7.31 | log dose ratio from hBNP(1-32) (hNPR1 cGMP agonist assay) [2]: -1.92 | potency fold loss from hBNP(1-32) (hNPR1 cGMP agonist assay) [2]: 83 fold
B2: Compound 3, P-(SEQ ID No:2)10-A-hBNP(6-32) (PAS attached to N-terminus of glutamine 6) (ligand)
chain: PASPAAPAPASPAAPAPSAPAASPAAPAPASPAAPAPSAPAASPAAPAPASPAAPAPSAPAASPAAPAPASPAAPAPSAPAASPAAPAPASPAAPAPSAPAASPAAPAPASPAAPAPSAPAASPAAPAPASPAAPAPSAPAASPAAPAPASPAAPAPSAPAASPAAPAPASPAAPAPSAPAASPAAPAPASPAAPAPSAPAAQGSGCFGRKMDRISSSSGLGCKVLRRH

Further lines, the molecule ahead of its results:

Molecule: PAS400-hBNP(1-32) (ligand)
Log dose ratio from hBNP(1-32) (NPR-1 cGMP assay, HEK293T/17) [1]: 1.58 | Maximum % control (cGMP HTRF, % response to BNP1-32 10 µM) [1]: 97.3% | PEC50 (n) (cGMP HTRF, transiently transfected HEK293T/17 cells) [1]: 6.49 | Potency fold loss from hBNP(1-32) (NPR-1 cGMP assay, HEK293T/17) [1]: 38.2 fold | fold reduction in potency relative to PAS200 (NPR-1 cGMP assay, HEK293T/17) [1]: 5.2 fold | pEC50 [1]: 6.49

Molecule: PAS800-hBNP(1-32) (ligand)
Log dose ratio from hBNP(1-32) (NPR-1 cGMP assay, HEK293T/17) [1]: 1.54 | Maximum % control (cGMP HTRF, % response to BNP1-32 10 µM) [1]: 89.1% | PEC50 (n) (cGMP HTRF, transiently transfected HEK293T/17 cells) [1]: 6.53 | Potency fold loss from hBNP(1-32) (NPR-1 cGMP assay, HEK293T/17) [1]: 34.3 fold | pEC50 [1]: 6.53

B3: Compound 2, P-(SEQ ID No:2)10-A-hBNP(3-32) (PAS attached to the alpha amino group of the N-terminal lysine 3) (ligand)
chain: PASPAAPAPASPAAPAPSAPAASPAAPAPASPAAPAPSAPAASPAAPAPASPAAPAPSAPAASPAAPAPASPAAPAPSAPAASPAAPAPASPAAPAPSAPAASPAAPAPASPAAPAPSAPAASPAAPAPASPAAPAPSAPAASPAAPAPASPAAPAPSAPAASPAAPAPASPAAPAPSAPAASPAAPAPASPAAPAPSAPAAKMVQGSGCFGRKMDRISSSSGLGCKVLRRH
log EC50 (cGMP, TR-FRET, % Activation, CHO-K1 cells transfected with hNPR1) [2]: -7.84 | log dose ratio from hBNP(1-32) (hNPR1 cGMP agonist assay) [2]: -1.39 | potency fold loss from hBNP(1-32) (hNPR1 cGMP agonist assay) [2]: 25 fold
